{"source": "patent US20120114590A1", "about": "(priority 2005, published 2012)", "molecules": {"B1": {"name": "Zcyto24: mouse IL-28A (zcyto24), SEQ ID NO:8 (protein, listed as Mus musculus)", "chain": "MKPETAGGHMLLLLLPLLLAAVLTRTQADPVPRATRLPVEAKDCHIAQFKSLSPKELQAFKKAKDAIEKRLLEKDLRCSSHLFPRAWDLKQLQVQERPKALQAEVALTLKVWENMTDSALATILGQPLHTLSHIHSQLQTCTQLQATAEPRSPSRRLSRWLHRLQEAQSKETPGCLEASVTSNLFRLLTRDLKCVANGDQCV"}}, "key": {"[1]": {"tested_on": "ISRE signaling in HepG2 cells", "details": "100 ng/ml ligand, 4-hour incubation; RLU over medium alone"}, "adenoviral vector AdGFP": {"tested_on": "adenoviral vector AdGFP", "assay": "Adenoviral vector (AdGFP) liver pathology model in C57Bl/6 mice", "details": "AdGFP-infected C57Bl/6 mice, 50 μg i.p., 7 doses"}, "mouse B cells": {"tested_on": "mouse B cells", "assay": "3H-thymidine incorporation by mouse B cells", "format": "cell-based", "details": "72 hrs culture", "experimental": "Mouse B cells were isolated from 2 Balb/C spleens (7 months old) by depleting CD43+ cells using MACS magnetic beads. Purified B cells were cultured in vitro with LPS, anti-IgM or anti-CD40 monoclonal antibodies. Mouse IL-28 or mouse IFNα was added to the cultures and ^3H-thymidine was added at 48 hrs. and ^3H-thymidine incorporation was measured after 72 hrs. culture."}, "AML-12 cells": {"tested_on": "AML-12 cells", "assay": "ISG induction in the mouse liver cell line AML-12 (real-time PCR)", "format": "cell-based", "details": "AML-12, 20 ng/ml, 48 hour time point; mRNA relative to HPRT gene expression", "experimental": "AML-12 cells were plated in 6-well plates in complete DMEM media at a concentration of 2×10^6 cells/well. […] As a control, cells were either stimulated with mouse IFNα (positive control) or unstimulated (negative). […] RNA was isolated from cell pellets using RNAEasy-kit® (Qiagen, Valencia, Calif.). RNA was treated with DNase (Millipore, Billerica, Mass.) to clean RNA of any contaminating DNA. cDNA was generated using Perkin-Elmer RT mix. ISG gene induction was evaluated by real-time PCR using primers and probes specific for mouse OAS, Pkr and Mx1. To obtain quantitative data, HPRT real-time PCR was duplexed with ISG PCR. A standard curve was obtained using known amounts of RNA from IFN-stimulated mouse PBLs. All data are shown as expression relative to internal HPRT expression."}, "[2]": {"tested_on": "293 HEK cells overexpressing zcytor19", "assay": "Inhibition of ligand-induced ISRE-luciferase signaling by soluble receptors", "format": "cell-based, human", "details": "10 ng/ml ligand, 10 micrograms/ml soluble receptor, 4-hour; relative to PBS alone"}}, "data": [{"molecule": "B1", "values": [{"measurement": "Fold Induction of Cytokine-dependent ISRE Signaling in HepG2 Cells", "setting": "[1]", "value": 4.7, "unit": "fold"}, {"measurement": "liver histology: liver and inflammation scores versus PBS-treated group", "setting": "adenoviral vector AdGFP", "value": "lower liver and inflammation scores"}, {"measurement": "average serum AST", "setting": "adenoviral vector AdGFP; n=8", "value": 193, "unit": "U/L"}, {"measurement": "relative liver fluorescence", "setting": "adenoviral vector AdGFP; n=8", "value": 34.5, "unit": "arbitrary units"}, {"measurement": "serum ALT", "setting": "adenoviral vector AdGFP; n=8", "value": 216, "unit": "U/L"}, {"measurement": "3H thymidine incorporation by mouse B cells stimulated with anti-CD40 MAb", "setting": "mouse B cells", "value": "increased"}, {"measurement": "3H-thymidine incorporation by mouse B cells stimulated with LPS or anti-IgM", "setting": "mouse B cells; IFNα at 10 ng/ml, mouse IL-28 any concentration tested including 1000 ng/ml", "value": "did not inhibit"}, {"measurement": "Mx1", "setting": "AML-12 cells", "value": 0.08}, {"measurement": "OAS", "setting": "AML-12 cells", "value": 0.04}, {"measurement": "PkR", "setting": "AML-12 cells", "value": 0.02}, {"measurement": "Percent Inhibition of Ligand-induced ISRE Signaling by HuCRF2-4-Fc", "setting": "[2]", "value": 82, "unit": "%"}, {"measurement": "Percent Inhibition of Ligand-induced ISRE Signaling by Huzcytor19-Fc", "setting": "[2]", "value": 90, "unit": "%"}, {"measurement": "Percent Inhibition of Ligand-induced ISRE Signaling by Huzcytor19-Fc/huCRF2-4-Fc", "setting": "[2]", "value": 47, "unit": "%"}, {"measurement": "Percent Inhibition of Ligand-induced ISRE Signaling by Muzcytor19-Ig", "setting": "[2]", "value": 89, "unit": "%"}]}]}
